According to publication PMC6192639, “Generation and characterization of monoclonal antibodies that recognize human and murine supervillin protein isoforms” (PLoS ONE, 2018):
Substitutions are numbered along the chain they refer to.

B1: murine monoclonal antibody clone 2G3 (hybridoma supernatant) (antibody, V domains shown)
VH: QIQLQQSGPELVKPGASVKISCKASAYTFTDYYINWVKQRPGQGLEWIGWIYPGSGNTKYNEKFKGKATLTVDTSSSTAYMQLSSLTSEDSAVYFCATGPFGGFAYWGQGTLVTVSA
VL: DIVMTQAAPSVPVTPGESVSISCRSSKSLLHSNGNTYLYWFLQRPGQSPQLLIYRMSNLASGVPDRFSGSGSGTAFALRISRVEAEDVGVYYCMQHLEYPLTFDAGTRLELK
notes: HC variable region of clone 2G3, partial CDS; mouse IgG1 heavy chain constant region (isotype IgG1 by isotyping kit); LC variable region of clone 2G3, partial CDS; mouse light chain constant region; mouse IgG1; Group 1; source: mouse hybridoma supernatant (Precision Antibody, Inc.)
B2: chimeric (rabbit Fc) monoclonal antibody 1E2 (CPTC-SVIL-1) (antibody, V domains shown)
VH: B1 VH with E10D, A26G, Y60F, K63R, G66D, T98S, Y106H
VL: B1 VL with H31Y, A77T, R79K, D104G, R108K
notes: HC variable region of clone 1E2 (as the heavy chain variable region of m4), partial CDS; LC variable region of clone 1E2 (as the light chain variable region of m4), partial CDS; mouse variable regions on rabbit IgG and rabbit kappa constant regions; Group 1; also called Rb 1E2; chimeric rabbit 1E2; source: HEK293, transient production, purified (protein A)
B3: chimeric (rabbit Fc) monoclonal antibody 4A8 (CPTC-SVIL-2) (antibody, V domains shown)
VH: EVQLQQSGAELVRPGASVKLSCTASGFNIKDDHMHWVKQRPEQGLEWIGWIDPENGDTEYASKFQDKATITADTSSNTAYLQFSSLTSEDTAVYYCTTGEFDNWGQGTTLTVSS
VL: B1 VL with V11I, E17Q, G73A, A77T, L101F, T102S, D104G, R108K
notes: HC variable region of clone 4A8 (as the heavy chain variable region of m7), partial CDS; LC variable region of clone 4A8 (as the light chain variable region of m7), partial CDS; mouse variable regions on rabbit IgG and rabbit kappa constant regions; Group 2; also called Rb 4A8; chimeric rabbit 4A8; source: HEK293, transient production, purified (protein A)

How the values were obtained:
[1] = biological target: T1, h340 linear peptide IENQRRGQELSATRQ (Homo sapiens); assay: peptide or protein array; PEPperPRINT microarray of linear 15-residue h340 peptides (overlap 13), hybridoma supernatants diluted 1:10 and 1:1, 16 h at 4 C, anti-mouse IgG DyLight680; conditions: one partner purified
T1 construct: 15-residue peptide of human supervillin h340; numbers count on: hSV1; spot on a peptide microarray; source: printed peptide microarray (PEPperPRINT)
T1 chain: IENQRRGQELSATRQ

[2] = biological target: T2, h340 linear peptide ELSATRQAHDLSPAA (Homo sapiens); assay: as above; conditions: one partner purified
T2 construct: 15-residue peptide of human supervillin h340; numbers count on: hSV1; spot on a peptide microarray; source: printed peptide microarray (PEPperPRINT)
T2 chain: ELSATRQAHDLSPAA

[3] = biological target: T3, endogenous human supervillin splice-form 4 (SV4) (human (endogenous in U2OS)); assay: immunoblot; cell extracts (HeLa; U2OS with control or SVIL-specific dsRNA; mouse embryonic fibroblasts) on 5-15% SDS gels, nitrocellulose strips probed with hybridoma supernatants diluted 1:500; conditions: partners not purified
T3 construct: also called hSV4; source: endogenous, U2OS lysate

[4] = biological target: T4, Flag-tagged human supervillin splice-form 4 (Flag-hSV4) (Homo sapiens, UniProt O95425-4, strain); assay: immunostaining of cells or tissue; immunofluorescence, cells fixed with 4% PFA (in CSK buffer, CSK-PFA), Triton X-100; purified antibody 100 ug/ml; overexpressed tagged supervillins in RH30 cells, or endogenous supervillin in U2OS cells on fibronectin; conditions: one partner purified
T4 construct: source: RH30 cells, transfected, fixed

[5] = biological target: T5, human supervillin N-terminus, first 340 amino acids (h340) (Homo sapiens, UniProt O95425-2); assay: BLI; Octet RED96e, 30 C, PBS-T; by the methods antibody coupled to AR2G sensors and h340 at about 2, 4, 8 and 16 nM, by the legend of Fig 3 surface-bound h340 and antibody in solution; 2:1 interaction model, global fit; KD as off-rate/on-rate; conditions: both partners purified
T5 construct: supervillin, human, first 340 amino acids of splice-form 1 (SV1); numbers count on: hSV1 (the ~205-kDa splice-form, not archvillin); also called h340 immunogen; h340 antigen; source: E. coli Rosetta2(DE3)pLysS, purified (glutathione-Sepharose 4B), cleaved from GST-h340 with PreScission Protease

[6] = biological target: T6, EGFP-tagged human supervillin splice-form 4 (EGFP-hSV4) (Homo sapiens, UniProt O95425-4, strain); assay: immunostaining of cells or tissue; immunofluorescence, cells fixed with cold methanol; purified antibody 100 ug/ml; overexpressed tagged supervillins in RH30 cells; conditions: one partner purified
T6 construct: source: RH30 cells, transfected, fixed
T6 sequence (O95425 whole entry, looked up, stated change not applied, canonical isoform): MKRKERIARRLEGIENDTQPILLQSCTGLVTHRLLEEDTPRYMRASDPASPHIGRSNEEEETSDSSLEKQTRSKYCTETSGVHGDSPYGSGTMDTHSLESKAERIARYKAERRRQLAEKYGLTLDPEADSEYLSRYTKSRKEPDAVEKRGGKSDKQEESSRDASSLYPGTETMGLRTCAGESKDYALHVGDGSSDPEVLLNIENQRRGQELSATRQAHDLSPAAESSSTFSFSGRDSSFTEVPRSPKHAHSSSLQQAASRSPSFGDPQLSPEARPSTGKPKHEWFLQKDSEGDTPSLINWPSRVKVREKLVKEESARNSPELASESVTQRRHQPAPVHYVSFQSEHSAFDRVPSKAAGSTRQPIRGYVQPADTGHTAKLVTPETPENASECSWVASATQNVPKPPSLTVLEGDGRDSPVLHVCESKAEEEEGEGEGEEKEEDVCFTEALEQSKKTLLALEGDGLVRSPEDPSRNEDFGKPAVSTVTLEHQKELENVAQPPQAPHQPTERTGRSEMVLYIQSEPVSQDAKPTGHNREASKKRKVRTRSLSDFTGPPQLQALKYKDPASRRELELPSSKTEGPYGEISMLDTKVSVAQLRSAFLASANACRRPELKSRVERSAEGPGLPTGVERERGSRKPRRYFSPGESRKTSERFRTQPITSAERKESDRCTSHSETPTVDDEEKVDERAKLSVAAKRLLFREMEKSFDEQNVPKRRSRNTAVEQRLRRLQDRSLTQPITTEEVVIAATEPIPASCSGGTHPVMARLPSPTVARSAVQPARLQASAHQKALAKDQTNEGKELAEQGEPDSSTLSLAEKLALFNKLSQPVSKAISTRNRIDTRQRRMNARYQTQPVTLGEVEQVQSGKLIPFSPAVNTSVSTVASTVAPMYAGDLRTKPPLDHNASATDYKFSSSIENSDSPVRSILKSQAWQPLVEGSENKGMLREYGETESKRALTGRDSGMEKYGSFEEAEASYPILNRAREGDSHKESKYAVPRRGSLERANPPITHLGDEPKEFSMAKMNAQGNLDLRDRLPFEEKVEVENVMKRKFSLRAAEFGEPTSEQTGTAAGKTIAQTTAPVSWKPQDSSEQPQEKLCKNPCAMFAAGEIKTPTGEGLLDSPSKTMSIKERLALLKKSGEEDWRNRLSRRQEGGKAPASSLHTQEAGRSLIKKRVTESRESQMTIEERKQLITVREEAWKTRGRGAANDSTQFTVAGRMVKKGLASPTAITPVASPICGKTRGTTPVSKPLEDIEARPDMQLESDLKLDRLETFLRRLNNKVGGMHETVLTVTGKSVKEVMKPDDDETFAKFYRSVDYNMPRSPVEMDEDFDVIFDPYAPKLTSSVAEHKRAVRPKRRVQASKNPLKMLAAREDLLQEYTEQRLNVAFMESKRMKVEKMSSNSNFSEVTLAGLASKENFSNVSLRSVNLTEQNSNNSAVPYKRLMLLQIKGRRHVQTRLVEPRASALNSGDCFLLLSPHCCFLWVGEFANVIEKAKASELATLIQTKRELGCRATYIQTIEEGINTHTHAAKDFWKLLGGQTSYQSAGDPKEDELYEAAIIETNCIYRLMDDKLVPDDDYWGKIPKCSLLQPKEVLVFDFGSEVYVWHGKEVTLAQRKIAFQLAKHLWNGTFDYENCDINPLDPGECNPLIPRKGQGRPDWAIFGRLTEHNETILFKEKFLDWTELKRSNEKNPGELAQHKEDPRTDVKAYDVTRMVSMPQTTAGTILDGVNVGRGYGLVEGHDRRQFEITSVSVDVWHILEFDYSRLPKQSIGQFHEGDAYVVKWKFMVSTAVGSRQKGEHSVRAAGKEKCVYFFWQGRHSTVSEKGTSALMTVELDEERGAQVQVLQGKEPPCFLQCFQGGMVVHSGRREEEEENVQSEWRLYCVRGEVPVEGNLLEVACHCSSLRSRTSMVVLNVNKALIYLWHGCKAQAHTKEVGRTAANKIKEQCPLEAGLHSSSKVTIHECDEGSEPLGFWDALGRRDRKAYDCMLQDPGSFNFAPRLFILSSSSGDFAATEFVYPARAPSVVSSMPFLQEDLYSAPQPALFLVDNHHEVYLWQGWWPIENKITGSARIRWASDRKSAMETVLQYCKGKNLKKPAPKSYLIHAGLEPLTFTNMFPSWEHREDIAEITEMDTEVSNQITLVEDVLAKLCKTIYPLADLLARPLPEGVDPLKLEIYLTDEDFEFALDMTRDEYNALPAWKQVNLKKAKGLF

T5 sequence (O95425 other isoform, or with tags, fused parts or gaps): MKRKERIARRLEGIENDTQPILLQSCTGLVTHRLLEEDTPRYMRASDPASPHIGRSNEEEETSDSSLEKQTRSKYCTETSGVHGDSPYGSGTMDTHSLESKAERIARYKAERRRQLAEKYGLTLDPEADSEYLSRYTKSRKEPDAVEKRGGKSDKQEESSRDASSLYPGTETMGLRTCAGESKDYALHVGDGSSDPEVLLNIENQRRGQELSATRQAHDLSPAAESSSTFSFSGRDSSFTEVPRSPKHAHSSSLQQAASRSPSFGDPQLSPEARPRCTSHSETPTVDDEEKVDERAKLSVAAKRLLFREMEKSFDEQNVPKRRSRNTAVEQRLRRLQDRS
T4 sequence (O95425 whole entry, looked up, stated change not applied, canonical isoform): as the sequence (O95425 whole entry, looked up, stated change not applied, canonical isoform) above

Row | Binder | binding result [1] | binding result [2] | binding result [3] | binding result [4] | Kd [5] | koff [5] | kon [5] | binding result [6]
1 | B1 | binds | binds | binds |  |  |  |  | 
2 | B2 |  |  |  | binds | 4.21 nM | 0.000496 s⁻¹ | 118000 M⁻¹ s⁻¹ | 
3 | B3 |  |  |  |  | 0.73 nM | 0.000296 s⁻¹ | 407000 M⁻¹ s⁻¹ | binds
